From patent US20160089413 come the findings set out here.

This data set deals with all-D-retro-inverso JNK-inhibitor (poly-)peptide of SEQ ID NO: 11.

c-Jun NH2-terminal kinases (JNK): the “c-Jun phosphorylation in RPE/choroid, densitometry of phospho c-Jun relative to tubulin, 24 h after IV injection (20 µg/kg)” value was 0.28±0.01 vs 0.77±0.26 in IV of vehicle; the “c-Jun phosphorylation in RPE/choroid, densitometry of phospho c-Jun relative to tubulin, 24 h after IVT injection (0.2 µg/injection)” value is recorded as 0.35±0.08 vs 0.79±0.25 in IVT of vehicle; the “c-Jun phosphorylation in RPE/choroid, densitometry of phospho c-Jun relative to tubulin, fold decrease against vehicle” value is given as “An approximately 3-fold decrease in c-Jun phosphorylation”.
